The record followed here is paper PMC10580950.

For data set [1], the system named is OxyR (Streptomyces gilvosporeus F607). The data set can be described thus: MST. The settings on record: EMSA: 20 mM Tris pH 7.5, 60 mM KCl, 2 mM EDTA, 0.5 mM DTT, 4% Ficoll, 1 ug poly(dI-dC), 20 uL, 15-25 C, 30 min, MST: 50 mM HEPES pH 7.4, 0.05% Tween 20, room …. A general note: In EMSA bound probe runs differently from free probe, usually more slowly.
The test system of data set [2] is OxyR C212D (mimic of overoxidized OxyR) (Streptomyces gilvosporeus F607). The data set can be described thus: MST. The settings on record: overoxidized OxyR (C212D mimic per Results); EMSA: 20 mM Tris pH 7.5, 60 mM KCl, 2 mM EDTA, 0.5 mM DTT, 4% Ficoll, 1 ug poly(dI-dC), 20 uL, 15-25 C, 30 min; MST: 50 mM HEPES pH 7.4, 0.05% Tween 20, room ….

The Kd is the constant that tells how readily two partners part at equilibrium. Consider psgnM (redox EMSA and MST), for which the dissociation constant (Kd) in data set [1] (oxidized OxyR (H2O2)) amounted to 45.9 nM; in data set [1] (reduced OxyR (DTT)) it was 135 nM; in data set [2], 324 nM.
